Measured values taken from patent publication US20220204611A1.

Biological target: human TREM2 on cells (human) (UniProt Q9NZC2)
Assay: cell-based or functional assay

Sequence of human TREM2 on cells (human) (Q9NZC2 19-230): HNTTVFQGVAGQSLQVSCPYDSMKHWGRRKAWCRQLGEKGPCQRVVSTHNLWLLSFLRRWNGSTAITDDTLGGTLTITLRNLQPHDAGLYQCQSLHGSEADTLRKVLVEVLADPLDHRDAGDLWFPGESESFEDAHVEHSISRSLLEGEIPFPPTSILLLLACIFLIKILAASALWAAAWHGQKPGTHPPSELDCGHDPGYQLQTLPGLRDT

Emax (% maximum activation compared to RnD antibody): 100%
pSyk EC50, HEK293T human TREM2/DAP12: 0.5 nM
pSyk EC50, differentiated THP-1 cells: 0.383 nM
pSyk Emax, HEK293T human TREM2/DAP12: 13.8
Substance: rat anti-human/mouse TREM2 antibody mAb17291 (Rat IgG2b Clone #237920, R&D Systems)
